From the Human Domainome abundance scans (Beltran et al. 2025)
± gives the uncertainty stated by the source.

B1: Endonuclease CUE2, residues 9 to 47; numbered along this chain, P36075 (parent)
chain: HESKLSILMDMFPAISKSKLQVHLLENNNDLDLTIGLLL

Variants of: B1
Assay: abundance fitness (aPCA) (normalised: wild type 0, dead -1); higher = more abundant; growth selection in yeast, the domain comes from the species named
Conditions: Saccharomyces cerevisiae (strain ATCC 204508 / S288c)

Variant	abundance fitness
HESKLSIRMDMFPAISKSKLQVHLLENNNDLDLTIGLLL [L8R]	-0.883 ± 0.084
HESKLSISMDMFPAISKSKLQVHLLENNNDLDLTIGLLL [L8S]	-0.915 ± 0.23
HESKLSIEMDMFPAISKSKLQVHLLENNNDLDLTIGLLL [L8E]	-0.931 ± 0.09
HESKLSIKMDMFPAISKSKLQVHLLENNNDLDLTIGLLL [L8K]	-0.968 ± 0.15
HESKLSIVMDMFPAISKSKLQVHLLENNNDLDLTIGLLL [L8V]	-0.596 ± 0.046
HESKLSIMMDMFPAISKSKLQVHLLENNNDLDLTIGLLL [L8M]	-0.631 ± 0.12
HESKLSILMDMFEAISKSKLQVHLLENNNDLDLTIGLLL [P13E]	-0.349 ± 0.083
HESKLSILMDMFCAISKSKLQVHLLENNNDLDLTIGLLL [P13C]	-0.67 ± 0.18
HESKLSILMDMFRAISKSKLQVHLLENNNDLDLTIGLLL [P13R]	-0.951 ± 0.11
HESKLSILMDMFSAISKSKLQVHLLENNNDLDLTIGLLL [P13S]	-0.806 ± 0.12
HESKLSILMDMFMAISKSKLQVHLLENNNDLDLTIGLLL [P13M]	-0.72 ± 0.16
HESKLSILMDMFHAISKSKLQVHLLENNNDLDLTIGLLL [P13H]	-1.06 ± 0.3
HESKLSILMDMFWAISKSKLQVHLLENNNDLDLTIGLLL [P13W]	-1.04 ± 0.14
HESKLSILMDMFFAISKSKLQVHLLENNNDLDLTIGLLL [P13F]	-0.868 ± 0.37
HESKLSILMDMFQAISKSKLQVHLLENNNDLDLTIGLLL [P13Q]	-0.752 ± 0.13
HESKLSILMDMFGAISKSKLQVHLLENNNDLDLTIGLLL [P13G]	-0.834 ± 0.07
HESKLSILMDMFIAISKSKLQVHLLENNNDLDLTIGLLL [P13I]	-0.804 ± 0.17
HESKLSILMDMFTAISKSKLQVHLLENNNDLDLTIGLLL [P13T]	-0.861 ± 0.18
HESKLSILMDMFLAISKSKLQVHLLENNNDLDLTIGLLL [P13L]	-0.795 ± 0.1
HESKLSILMDMFDAISKSKLQVHLLENNNDLDLTIGLLL [P13D]	-0.898 ± 0.18
HESKLSILMDMFKAISKSKLQVHLLENNNDLDLTIGLLL [P13K]	-0.781 ± 0.16
HESKLSILMDMFAAISKSKLQVHLLENNNDLDLTIGLLL [P13A]	-0.602 ± 0.11

Variant	abundance fitness
HESKLSILMDLFPAISKSKLQVHLLENNNDLDLTIGLLL [M11L]	-0.184 ± 0.083
HESKLSILMDAFPAISKSKLQVHLLENNNDLDLTIGLLL [M11A]	-0.16 ± 0.049
HESKLSILMDHFPAISKSKLQVHLLENNNDLDLTIGLLL [M11H]	-0.297 ± 0.14
HESKLSILMDSFPAISKSKLQVHLLENNNDLDLTIGLLL [M11S]	-0.421 ± 0.15
HESKLSILMDWFPAISKSKLQVHLLENNNDLDLTIGLLL [M11W]	-0.413 ± 0.048
HESKLSILMDVFPAISKSKLQVHLLENNNDLDLTIGLLL [M11V]	-0.447 ± 0.058
HESKLSILMDQFPAISKSKLQVHLLENNNDLDLTIGLLL [M11Q]	-0.077 ± 0.037
HESKLSILMDDFPAISKSKLQVHLLENNNDLDLTIGLLL [M11D]	-0.758 ± 0.12
HESKLSILMDPFPAISKSKLQVHLLENNNDLDLTIGLLL [M11P]	-0.748 ± 0.28
HESKLSILMDNFPAISKSKLQVHLLENNNDLDLTIGLLL [M11N]	-0.209 ± 0.26
HESKLSILMDGFPAISKSKLQVHLLENNNDLDLTIGLLL [M11G]	-0.746 ± 0.074
HESKLSILMDEFPAISKSKLQVHLLENNNDLDLTIGLLL [M11E]	-0.274 ± 0.051
HESKLSILWDMFPAISKSKLQVHLLENNNDLDLTIGLLL [M9W]	-0.28 ± 0.059
HESKLSILEDMFPAISKSKLQVHLLENNNDLDLTIGLLL [M9E]	-0.03 ± 0.054
HESKLSILKDMFPAISKSKLQVHLLENNNDLDLTIGLLL [M9K]	-0.155 ± 0.083
HESKLSILADMFPAISKSKLQVHLLENNNDLDLTIGLLL [M9A]	-0.042 ± 0.042
HESKLSILGDMFPAISKSKLQVHLLENNNDLDLTIGLLL [M9G]	-0.011 ± 0.033
HESKLSILTDMFPAISKSKLQVHLLENNNDLDLTIGLLL [M9T]	-0.054 ± 0.073
HESKLSILRDMFPAISKSKLQVHLLENNNDLDLTIGLLL [M9R]	-0.049 ± 0.032
HESKLSILNDMFPAISKSKLQVHLLENNNDLDLTIGLLL [M9N]	-0.402 ± 0.1
HESKLSILCDMFPAISKSKLQVHLLENNNDLDLTIGLLL [M9C]	-0.159 ± 0.057
HESKLSILDDMFPAISKSKLQVHLLENNNDLDLTIGLLL [M9D]	-0.255 ± 0.068

Variant	abundance fitness
HESKLSILSDMFPAISKSKLQVHLLENNNDLDLTIGLLL [M9S]	-0.011 ± 0.042
HESKLSILVDMFPAISKSKLQVHLLENNNDLDLTIGLLL [M9V]	0.014 ± 0.052
HESKLSILQDMFPAISKSKLQVHLLENNNDLDLTIGLLL [M9Q]	-0.013 ± 0.07
HESKLSILPDMFPAISKSKLQVHLLENNNDLDLTIGLLL [M9P]	-1.14 ± 0.28
HESKLSILYDMFPAISKSKLQVHLLENNNDLDLTIGLLL [M9Y]	-0.057 ± 0.055
HESKLSILLDMFPAISKSKLQVHLLENNNDLDLTIGLLL [M9L]	0.107 ± 0.042
HESKLSILMDMFPWISKSKLQVHLLENNNDLDLTIGLLL [A14W]	-0.047 ± 0.034
HESKLSILMDMFPQISKSKLQVHLLENNNDLDLTIGLLL [A14Q]	0.012 ± 0.045
HESKLSILMDMFPSISKSKLQVHLLENNNDLDLTIGLLL [A14S]	0.068 ± 0.046
HESKLSILMDMFPMISKSKLQVHLLENNNDLDLTIGLLL [A14M]	-0.133 ± 0.061
HESKLSILMDMFPLISKSKLQVHLLENNNDLDLTIGLLL [A14L]	-0.053 ± 0.036
HESKLSILMDMFPEISKSKLQVHLLENNNDLDLTIGLLL [A14E]	0.068 ± 0.039
HESKLSILMDMFPRISKSKLQVHLLENNNDLDLTIGLLL [A14R]	-0.018 ± 0.036
HESKLSILMDMFPTISKSKLQVHLLENNNDLDLTIGLLL [A14T]	-0.163 ± 0.22
HESKLSILMDMFPGISKSKLQVHLLENNNDLDLTIGLLL [A14G]	0.012 ± 0.031
HESKLSILMDMFPPISKSKLQVHLLENNNDLDLTIGLLL [A14P]	-0.383 ± 0.076
HESKLSILMDMFPCISKSKLQVHLLENNNDLDLTIGLLL [A14C]	-0.093 ± 0.068
HESKLSILMDMFPFISKSKLQVHLLENNNDLDLTIGLLL [A14F]	-0.033 ± 0.089
HESKLSILMDMFPVISKSKLQVHLLENNNDLDLTIGLLL [A14V]	-0.079 ± 0.047
HESKLSILMDMFPDISKSKLQVHLLENNNDLDLTIGLLL [A14D]	-0.118 ± 0.13
